From patent publication US20210388110A1 (published 2021) come the findings set out here.

The test has as its target T1, soluble human GPC3 (human, UniProt P51654 25-563, limits assumed).
T1 construct: soluble human GPC3 as analyte; also called glypican 3
Briefly: SPR (Biacore), soluble human GPC3.

T1 sequence (P51654 other isoform, or with tags, fused parts or gaps limits assumed, form in doubt): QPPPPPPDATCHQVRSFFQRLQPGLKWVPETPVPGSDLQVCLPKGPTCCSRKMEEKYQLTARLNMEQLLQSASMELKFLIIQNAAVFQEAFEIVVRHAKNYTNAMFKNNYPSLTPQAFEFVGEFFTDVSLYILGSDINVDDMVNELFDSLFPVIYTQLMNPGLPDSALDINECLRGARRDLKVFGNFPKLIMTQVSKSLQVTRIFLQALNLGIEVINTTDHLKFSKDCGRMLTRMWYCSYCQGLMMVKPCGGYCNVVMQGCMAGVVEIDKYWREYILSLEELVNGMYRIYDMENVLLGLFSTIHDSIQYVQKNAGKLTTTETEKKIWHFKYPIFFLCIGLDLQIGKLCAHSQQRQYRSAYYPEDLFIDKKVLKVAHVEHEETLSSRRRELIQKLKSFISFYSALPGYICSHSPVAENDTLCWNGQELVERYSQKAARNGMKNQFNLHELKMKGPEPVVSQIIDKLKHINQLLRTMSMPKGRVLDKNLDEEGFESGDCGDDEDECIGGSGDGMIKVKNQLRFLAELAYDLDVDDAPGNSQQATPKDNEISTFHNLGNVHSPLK

B1: H0610-G1dh/none-Hi-Kn010G3/L0000-k0 (antibody, human IgG1, kappa)
heavy: not shown
chain: EPKSSDKTHTCPPCPAPELLGGPSVFLFPPKPKDTLMISRTPEVTCVVVDVSHEDPEVKFNWYVDGVEVHNAKTKPREEQYNSTYRVVSVLTVLHQDWLNGKEYKCKVSNKALPAPIEKTISKAKGQPREPQVCTLPPSRDELTKNQVSLWCLVKGFYPSDIAVEWESNGQPENNYKTTPPVLDSDGSFFLYSKLTVDKSRWQQGNVFSCSVMHEALHNRYTQKSLSLSP
light: DIVMTQSPLSLPVTPGEPASISCRSSQSLVHSNRNTYLHWYQQKPGQAPRLLIYKVSNRFSGVPDRFSGSGSGTDFTLKISRVEAEDVGVYYCGQGTQVPYTFGQGTKLEIKRTVAAPSVFIFPPSDEQLKSGTASVVCLLNNFYPREAKVQWKVDNALQSGNSQESVTEQDSKDSTYSLSSTLTLSKADYEKHKVYACEVTHQGLSSPVTKSFNRGEC
notes: single-arm (one Fab)
For the molecule B1, the Kd (in general, the free concentration of one partner at which half of the binding sites on the other are occupied at equilibrium, for simple one-to-one binding) stood at 3.97 nM.

B2: GCH014-G1dh/none-Hi-Kn010G3/L0000-k0 (antibody, human IgG1, kappa)
heavy: not shown
chain: EPKSSDKTHTCPPCPAPELLGGPSVFLFPPKPKDTLMISRTPEVTCVVVDVSHEDPEVKFNWYVDGVEVHNAKTKPREEQYNSTYRVVSVLTVLHQDWLNGKEYKCKVSNKALPAPIEKTISKAKGQPREPQVCTLPPSRDELTKNQVSLWCLVKGFYPSDIAVEWESNGQPENNYKTTPPVLDSDGSFFLYSKLTVDKSRWQQGNVFSCSVMHEALHNRYTQKSLSLSP
light: DIVMTQSPLSLPVTPGEPASISCRSSQSLVHSNRNTYLHWYQQKPGQAPRLLIYKVSNRFSGVPDRFSGSGSGTDFTLKISRVEAEDVGVYYCGQGTQVPYTFGQGTKLEIKRTVAAPSVFIFPPSDEQLKSGTASVVCLLNNFYPREAKVQWKVDNALQSGNSQESVTEQDSKDSTYSLSSTLTLSKADYEKHKVYACEVTHQGLSSPVTKSFNRGEC
notes: single-arm (one Fab)
As to B2, the Kd worked out at 4.2 nM.

B3: GCH027-G1dh/none-Hi-Kn010G3/L0000-k0 (antibody, human IgG1, kappa)
heavy: not shown
chain: EPKSSDKTHTCPPCPAPELLGGPSVFLFPPKPKDTLMISRTPEVTCVVVDVSHEDPEVKFNWYVDGVEVHNAKTKPREEQYNSTYRVVSVLTVLHQDWLNGKEYKCKVSNKALPAPIEKTISKAKGQPREPQVCTLPPSRDELTKNQVSLWCLVKGFYPSDIAVEWESNGQPENNYKTTPPVLDSDGSFFLYSKLTVDKSRWQQGNVFSCSVMHEALHNRYTQKSLSLSP
light: DIVMTQSPLSLPVTPGEPASISCRSSQSLVHSNRNTYLHWYQQKPGQAPRLLIYKVSNRFSGVPDRFSGSGSGTDFTLKISRVEAEDVGVYYCGQGTQVPYTFGQGTKLEIKRTVAAPSVFIFPPSDEQLKSGTASVVCLLNNFYPREAKVQWKVDNALQSGNSQESVTEQDSKDSTYSLSSTLTLSKADYEKHKVYACEVTHQGLSSPVTKSFNRGEC
notes: single-arm (one Fab)
For B3, the Kd is 3.83 nM.

B4: GCH025-G1dh/none-Hi-Kn010G3/L0204-k0 (antibody, human IgG1, kappa)
heavy: not shown
chain: EPKSSDKTHTCPPCPAPELLGGPSVFLFPPKPKDTLMISRTPEVTCVVVDVSHEDPEVKFNWYVDGVEVHNAKTKPREEQYNSTYRVVSVLTVLHQDWLNGKEYKCKVSNKALPAPIEKTISKAKGQPREPQVCTLPPSRDELTKNQVSLWCLVKGFYPSDIAVEWESNGQPENNYKTTPPVLDSDGSFFLYSKLTVDKSRWQQGNVFSCSVMHEALHNRYTQKSLSLSP
light: DIVMTQSPLSLPVTPGEPASISCRSSQSPVHSNRNTYLHWYQQKPGQAPRLLIYKVSNRFRGVPDRFSGSGSGTDFTLKISRVEAEDVGVYYCGQGTQVPYTFGQGTKLEIKRTVAAPSVFIFPPSDEQLKSGTASVVCLLNNFYPREAKVQWKVDNALQSGNSQESVTEQDSKDSTYSLSSTLTLSKADYEKHKVYACEVTHQGLSSPVTKSFNRGEC
notes: single-arm (one Fab)
For B4, binding was put at a Kd of 0.67 nM.

B5: GCH019-G1dh/none-Hi-Kn010G3/L0000-k0 (antibody, human IgG1, kappa)
heavy: not shown
chain: EPKSSDKTHTCPPCPAPELLGGPSVFLFPPKPKDTLMISRTPEVTCVVVDVSHEDPEVKFNWYVDGVEVHNAKTKPREEQYNSTYRVVSVLTVLHQDWLNGKEYKCKVSNKALPAPIEKTISKAKGQPREPQVCTLPPSRDELTKNQVSLWCLVKGFYPSDIAVEWESNGQPENNYKTTPPVLDSDGSFFLYSKLTVDKSRWQQGNVFSCSVMHEALHNRYTQKSLSLSP
light: DIVMTQSPLSLPVTPGEPASISCRSSQSLVHSNRNTYLHWYQQKPGQAPRLLIYKVSNRFSGVPDRFSGSGSGTDFTLKISRVEAEDVGVYYCGQGTQVPYTFGQGTKLEIKRTVAAPSVFIFPPSDEQLKSGTASVVCLLNNFYPREAKVQWKVDNALQSGNSQESVTEQDSKDSTYSLSSTLTLSKADYEKHKVYACEVTHQGLSSPVTKSFNRGEC
notes: single-arm (one Fab)
In turn, B5 came in with a Kd of 4.36 nM.

B6: GCH016-G1dh/none-Hi-Kn010G3/L0000-k0 (antibody, human IgG1, kappa)
heavy: not shown
chain: EPKSSDKTHTCPPCPAPELLGGPSVFLFPPKPKDTLMISRTPEVTCVVVDVSHEDPEVKFNWYVDGVEVHNAKTKPREEQYNSTYRVVSVLTVLHQDWLNGKEYKCKVSNKALPAPIEKTISKAKGQPREPQVCTLPPSRDELTKNQVSLWCLVKGFYPSDIAVEWESNGQPENNYKTTPPVLDSDGSFFLYSKLTVDKSRWQQGNVFSCSVMHEALHNRYTQKSLSLSP
light: DIVMTQSPLSLPVTPGEPASISCRSSQSLVHSNRNTYLHWYQQKPGQAPRLLIYKVSNRFSGVPDRFSGSGSGTDFTLKISRVEAEDVGVYYCGQGTQVPYTFGQGTKLEIKRTVAAPSVFIFPPSDEQLKSGTASVVCLLNNFYPREAKVQWKVDNALQSGNSQESVTEQDSKDSTYSLSSTLTLSKADYEKHKVYACEVTHQGLSSPVTKSFNRGEC
notes: single-arm (one Fab)
B6 registered a Kd of 4.59 nM.

B7: GCH007-G1dh/none-Hi-Kn010G3/L0000-k0 (antibody, human IgG1, kappa)
heavy: not shown
chain: EPKSSDKTHTCPPCPAPELLGGPSVFLFPPKPKDTLMISRTPEVTCVVVDVSHEDPEVKFNWYVDGVEVHNAKTKPREEQYNSTYRVVSVLTVLHQDWLNGKEYKCKVSNKALPAPIEKTISKAKGQPREPQVCTLPPSRDELTKNQVSLWCLVKGFYPSDIAVEWESNGQPENNYKTTPPVLDSDGSFFLYSKLTVDKSRWQQGNVFSCSVMHEALHNRYTQKSLSLSP
light: DIVMTQSPLSLPVTPGEPASISCRSSQSLVHSNRNTYLHWYQQKPGQAPRLLIYKVSNRFSGVPDRFSGSGSGTDFTLKISRVEAEDVGVYYCGQGTQVPYTFGQGTKLEIKRTVAAPSVFIFPPSDEQLKSGTASVVCLLNNFYPREAKVQWKVDNALQSGNSQESVTEQDSKDSTYSLSSTLTLSKADYEKHKVYACEVTHQGLSSPVTKSFNRGEC
notes: single-arm (one Fab)
B7 came in with a Kd of 4.93 nM.

B8: GCH010-G1dh/none-Hi-Kn010G3/L0000-k0 (antibody, human IgG1, kappa)
heavy: not shown
chain: EPKSSDKTHTCPPCPAPELLGGPSVFLFPPKPKDTLMISRTPEVTCVVVDVSHEDPEVKFNWYVDGVEVHNAKTKPREEQYNSTYRVVSVLTVLHQDWLNGKEYKCKVSNKALPAPIEKTISKAKGQPREPQVCTLPPSRDELTKNQVSLWCLVKGFYPSDIAVEWESNGQPENNYKTTPPVLDSDGSFFLYSKLTVDKSRWQQGNVFSCSVMHEALHNRYTQKSLSLSP
light: DIVMTQSPLSLPVTPGEPASISCRSSQSLVHSNRNTYLHWYQQKPGQAPRLLIYKVSNRFSGVPDRFSGSGSGTDFTLKISRVEAEDVGVYYCGQGTQVPYTFGQGTKLEIKRTVAAPSVFIFPPSDEQLKSGTASVVCLLNNFYPREAKVQWKVDNALQSGNSQESVTEQDSKDSTYSLSSTLTLSKADYEKHKVYACEVTHQGLSSPVTKSFNRGEC
notes: single-arm (one Fab)
With B8, the Kd stood at 4.12 nM.

B9: GCH029-G1dh/none-Hi-Kn010G3/L0000-k0 (antibody, human IgG1, kappa)
heavy: not shown
chain: EPKSSDKTHTCPPCPAPELLGGPSVFLFPPKPKDTLMISRTPEVTCVVVDVSHEDPEVKFNWYVDGVEVHNAKTKPREEQYNSTYRVVSVLTVLHQDWLNGKEYKCKVSNKALPAPIEKTISKAKGQPREPQVCTLPPSRDELTKNQVSLWCLVKGFYPSDIAVEWESNGQPENNYKTTPPVLDSDGSFFLYSKLTVDKSRWQQGNVFSCSVMHEALHNRYTQKSLSLSP
light: DIVMTQSPLSLPVTPGEPASISCRSSQSLVHSNRNTYLHWYQQKPGQAPRLLIYKVSNRFSGVPDRFSGSGSGTDFTLKISRVEAEDVGVYYCGQGTQVPYTFGQGTKLEIKRTVAAPSVFIFPPSDEQLKSGTASVVCLLNNFYPREAKVQWKVDNALQSGNSQESVTEQDSKDSTYSLSSTLTLSKADYEKHKVYACEVTHQGLSSPVTKSFNRGEC
notes: single-arm (one Fab)
On to B9, for which binding was put at a Kd of 5.01 nM.

B10: GCH013-G1dh/none-Hi-Kn010G3/L0000-k0 (antibody, human IgG1, kappa)
heavy: not shown
chain: EPKSSDKTHTCPPCPAPELLGGPSVFLFPPKPKDTLMISRTPEVTCVVVDVSHEDPEVKFNWYVDGVEVHNAKTKPREEQYNSTYRVVSVLTVLHQDWLNGKEYKCKVSNKALPAPIEKTISKAKGQPREPQVCTLPPSRDELTKNQVSLWCLVKGFYPSDIAVEWESNGQPENNYKTTPPVLDSDGSFFLYSKLTVDKSRWQQGNVFSCSVMHEALHNRYTQKSLSLSP
light: DIVMTQSPLSLPVTPGEPASISCRSSQSLVHSNRNTYLHWYQQKPGQAPRLLIYKVSNRFSGVPDRFSGSGSGTDFTLKISRVEAEDVGVYYCGQGTQVPYTFGQGTKLEIKRTVAAPSVFIFPPSDEQLKSGTASVVCLLNNFYPREAKVQWKVDNALQSGNSQESVTEQDSKDSTYSLSSTLTLSKADYEKHKVYACEVTHQGLSSPVTKSFNRGEC
notes: single-arm (one Fab)
As to B10, the affinity, expressed as Kd, was 4.44 nM.

B11: GCH006-G1dh/none-Hi-Kn010G3/L0000-k0 (antibody, human IgG1, kappa)
heavy: not shown
chain: EPKSSDKTHTCPPCPAPELLGGPSVFLFPPKPKDTLMISRTPEVTCVVVDVSHEDPEVKFNWYVDGVEVHNAKTKPREEQYNSTYRVVSVLTVLHQDWLNGKEYKCKVSNKALPAPIEKTISKAKGQPREPQVCTLPPSRDELTKNQVSLWCLVKGFYPSDIAVEWESNGQPENNYKTTPPVLDSDGSFFLYSKLTVDKSRWQQGNVFSCSVMHEALHNRYTQKSLSLSP
light: DIVMTQSPLSLPVTPGEPASISCRSSQSLVHSNRNTYLHWYQQKPGQAPRLLIYKVSNRFSGVPDRFSGSGSGTDFTLKISRVEAEDVGVYYCGQGTQVPYTFGQGTKLEIKRTVAAPSVFIFPPSDEQLKSGTASVVCLLNNFYPREAKVQWKVDNALQSGNSQESVTEQDSKDSTYSLSSTLTLSKADYEKHKVYACEVTHQGLSSPVTKSFNRGEC
notes: single-arm (one Fab)
Turning to B11, the Kd amounted to 4.06 nM.

B12: GCH015-G1dh/none-Hi-Kn010G3/L0000-k0 (antibody, human IgG1, kappa)
heavy: not shown
chain: EPKSSDKTHTCPPCPAPELLGGPSVFLFPPKPKDTLMISRTPEVTCVVVDVSHEDPEVKFNWYVDGVEVHNAKTKPREEQYNSTYRVVSVLTVLHQDWLNGKEYKCKVSNKALPAPIEKTISKAKGQPREPQVCTLPPSRDELTKNQVSLWCLVKGFYPSDIAVEWESNGQPENNYKTTPPVLDSDGSFFLYSKLTVDKSRWQQGNVFSCSVMHEALHNRYTQKSLSLSP
light: DIVMTQSPLSLPVTPGEPASISCRSSQSLVHSNRNTYLHWYQQKPGQAPRLLIYKVSNRFSGVPDRFSGSGSGTDFTLKISRVEAEDVGVYYCGQGTQVPYTFGQGTKLEIKRTVAAPSVFIFPPSDEQLKSGTASVVCLLNNFYPREAKVQWKVDNALQSGNSQESVTEQDSKDSTYSLSSTLTLSKADYEKHKVYACEVTHQGLSSPVTKSFNRGEC
notes: single-arm (one Fab)
The molecule B12 displayed a Kd of 4.14 nM.
